{
  "source": "paper PMC10199020",
  "about": "(Nature Communications, 2023)",
  "binders": {"B1": {"name": "IL12p40 (ligand, UniProt P29460 23-328, looked up)", "chain": "IWELKKDVYVVELDWYPDAPGEMVVLTCDTPEEDGITWTLDQSSEVLGSGKTLTIQVKEFGDAGQYTCHKGGEVLSHSLLLLHKKEDGIWSTDILKDQKEPKNKTFLRCEAKNYSGRFTCWWLTTISTDLTFSVKSSRGSSDPQGVTCGAATLSAERVRGDNKEYEYSVECQEDSACPAAEESLPIEVMVDAVHKLKYENYTSSFFIRDIIKPDPPKNLQLKPLKNSRQVEVSWEYPDTWSTPHSYFSLTFCVQVQGKSKREKKDRVFTDKTSATVICRKNASISVRAQDRYYSSSWSEWASVPCS", "notes": "source: bought: Peprotech (CHO produced)"}},
  "molecular_target": "T1, NL-IL23R co-expressed with IL12Rβ1 (IL-23 receptor on cells) (UniProt Q5VWK5 24-629; P42701 24-662)",
  "T1 construct": "also called NL-IL23R and IL12Rβ1; NL-IL23R with IL12Rβ1; source: HEK293T, transiently transfected, on living cells",
  "T1 sequence (Q5VWK5 24-629, chain 1 of 2, other chains not shown)": "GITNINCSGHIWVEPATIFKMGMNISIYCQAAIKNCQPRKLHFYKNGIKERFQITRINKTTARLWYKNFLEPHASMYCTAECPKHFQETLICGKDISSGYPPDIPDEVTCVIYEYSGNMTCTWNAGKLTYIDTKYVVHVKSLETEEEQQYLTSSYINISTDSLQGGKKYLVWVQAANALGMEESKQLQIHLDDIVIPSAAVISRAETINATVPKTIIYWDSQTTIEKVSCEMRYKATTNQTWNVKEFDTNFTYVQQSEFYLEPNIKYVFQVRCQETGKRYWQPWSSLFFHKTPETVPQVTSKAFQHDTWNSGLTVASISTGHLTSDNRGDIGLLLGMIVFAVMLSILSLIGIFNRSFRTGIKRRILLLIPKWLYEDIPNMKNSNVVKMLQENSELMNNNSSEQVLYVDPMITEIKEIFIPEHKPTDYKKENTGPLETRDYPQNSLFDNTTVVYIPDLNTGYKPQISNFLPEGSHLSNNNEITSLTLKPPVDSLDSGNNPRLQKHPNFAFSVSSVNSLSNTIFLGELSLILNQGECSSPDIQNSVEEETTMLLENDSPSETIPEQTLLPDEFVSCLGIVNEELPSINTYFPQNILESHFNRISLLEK",
  "assay": "FRET or BRET; NanoBRET competition on living transfected HEK293T cells; 300 pM IL23-TMR displaced by unlabelled antagonist (concentration series or a single concentration); 1 h at 37 °C in HBSS with 1 mg/mL BSA",
  "conditions": "one partner purified",
  "data": [
    {"binder": "B1", "values": [
      {"measurement": "Ki", "result": 12.4, "unit": "nM"}
    ]}
  ]
}
